Laboratory results published in patent US6991908 (Takeda / Millennium, dated 2006).
Positions of bridges follow the written chain, without caps; N, C: chain ends. No end group written: not given here.

Key:
rat SLC-1 = rat SLC-1 (rat, UniProt P97639 1-353); assay: cell-based or functional assay
human SLC-1 = molecular target: T1, human SLC-1 (human); assay: radioligand competition against [125I]-labeled MCH(4-19) on human SLC-1-expression CHO cell membrane fraction (2.5 µg/ml), filtration, γ-counter
T1 construct: also called hSLC-1; human SLC-1(S)

Binder | agonist activity, GTPγS binding assay (fold decrease against MCH) (rat SLC-1) [times] | IC50 (human SLC-1) [pM]
RCMLGRVYRPCWQV (disulfide 2-11) [Des-[Asp1, Phe2, Asp3, Met4, Leu5]-MCH (MCH(6-19))] | ~10 | 
CMLGRVYRPCWQV (disulfide 1-10) [Des-[Asp1, Phe2, Asp3, Met4, Leu5, Arg6]-MCH (MCH(7-19))] | ~200 | 
DFDMLRCMLGRVYRPCWQV (ligand, disulfide 7-16, also called synthetic MCH; synthetic rat MCH) [melanin concentrating hormone (MCH), rat MCH] |  | 200
